Measured values published in PMC10550236.

Key:
[1] = biological target: CC^DD, CC fragment with glutamic acid replaced with aspartic acid at two core hydrophilic positions (Apis mellifera); test: SDS-PAGE under oligomer-forming (very low denaturation) conditions with Western blot; myc-tagged proteins translated in reticulocyte lysate; native loading buffer with no SDS; 0.01% SDS in the gel, 0.15% SDS as running buffer; anti-myc detection; complexes and monomers quantified by chemiluminescence
[2] = biological target: Fem proteins (Apis mellifera); test: SDS-PAGE under oligomer-forming (very low denaturation) conditions with Western blot; complexation of Fem proteins (fig. S6); the text does not name the method, taken from the experiments on Csd that precede it

| Substance | reduction of homotrimer formation compared to the WT [1] [%] | stoichiometry N [2] |
| --- | --- | --- |
| CC^DD, CC fragment with glutamic acid replaced with aspartic acid at two core hydrophilic positions | 50 to 90 |  |
| Fem proteins (natural protein) |  | 3 |
